In experiment [1] the target is T1, human APRIL in serum of CLL patients (human, UniProt O75888 105-250).
T1 construct: Endogenous soluble APRIL in patient sera (CLL1, CLL3, CLL6, CLL11-20); also called hAPRIL; A Proliferation-Inducing Ligand
T1 sequence (looked up): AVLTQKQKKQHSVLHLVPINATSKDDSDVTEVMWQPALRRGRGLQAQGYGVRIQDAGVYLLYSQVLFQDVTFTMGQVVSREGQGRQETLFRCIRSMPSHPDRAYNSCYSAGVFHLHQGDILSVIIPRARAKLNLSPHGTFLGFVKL
The experiment in a line: ELISA: serum APRIL of CLL1, CLL3 and CLL6 captured by BCMA-Fc (500 or 100 ng/well). Here is the method:
To quantify the APRIL serum levels in serum derived from CLL patients using the newly identified APRIL monoclonal antibodies, hAPRIL.130, hAPRIL.132, hAPRIL.133, hAPRIL.135 and hAPRIL.138 the following ELISA assay was performed. […] Next, plates were washed three times with PBS/0.2% Tween and blocked with 150 μl PBS/1% BSA for one hour at 37° C. After washing 3 times with PBS/0.2% Tween 100 μl of samples or standard curves was added. The CLL serum samples were five times diluted in PBS/10% FCS, while standard curve was diluted in PBS+FCS 10%+HS 20%. Samples and standard curve concentrations were incubated for 2 hr at room temperature. Next, plates were washed three times with PBS/0.2% Tween. Next, 100 μl of the anti-APRIL monoclonal antibody was added to the plates at a concentration of 1 μg/ml diluted in PBS/1% BSA and incubated for one hour at 37° C. Subsequently, plates were washed three times with PBS/0.2% Tween and 100 μl of Goat anti-Mouse IgG (H&L) (Southern Biotech, cat number 1031-05), diluted 1:1,000 in PBS/1% BSA was added and incubated for one hour at 37° C. Plates were washed three times with PBS/0.2% Tween and bound immune complexes visualized by addition of 100 μl of TMB substrate (TMB). The reaction was stopped by adding an equal amount of 1 M hydrochloric acid to the reaction volume. Bound APRIL was quantified by measurement of optical density at 450 nm.
(In an ELISA, binding on a coated surface is turned into a signal by an enzyme label.)

The target in experiment [2] is T1, human APRIL in serum of CLL patients. Kind of experiment: ELISA: serum APRIL captured by BCMA-Fc, antibody at 1 µg/ml, goat anti-mouse IgG detection. Here is the method: To quantify the APRIL serum levels in serum derived from CLL patients using the newly identified APRIL monoclonal antibodies, hAPRIL.130, hAPRIL.132, hAPRIL.133, hAPRIL.135 and hAPRIL.138 the following ELISA assay was performed. ELISA plates were coated with 100 μl of 0.5 μg/ml BCMA-Fc (EBC0512081; R&D), in coating buffer (0.2 M Sodium Phosphate, pH=6.5) and incubated overnight at 4° C. Next, plates were washed three times with PBS/0.2% Tween and blocked with 150 μl PBS/1% BSA for one hour at 37° C. After washing 3 times with PBS/0.2% Tween 100 μl of samples or standard curves was added. The CLL serum samples were five times diluted in PBS/10% FCS, while standard curve was diluted in PBS+FCS 10%+HS 20%. Samples and standard curve concentrations were incubated for 2 hr at room temperature. Next, plates were washed three times with PBS/0.2% Tween. Next, 100 μl of the anti-APRIL monoclonal antibody was added to the plates at a concentration of 1 μg/ml diluted in PBS/1% BSA and incubated for one hour at 37° C. Subsequently, plates were washed three times with PBS/0.2% Tween and 100 μl of Goat anti-Mouse IgG (H&L) (Southern Biotech, cat number 1031-05), diluted 1:1,000 in PBS/1% BSA was added and incubated for one hour at 37° C. […] Bound APRIL was quantified by measurement of optical density at 450 nm.

Changes are numbered by the printed parent chain.

B1: hAPRIL.133 (antibody, IgG1, V domains shown)
VH: QVQLKESGPGLVAPSQSLSITCTVSGFSLTGYGVNWVRQPPGKGLEWLGVIWGDGSTEYNSALKSRLSISKDKSKSQVFLKMNSLQTDDTARYYCARDDDVMDYWGQGTSVTVSS
VL: SIVMTQTPKFLLVSAGDSITITCKADQSVSSDVAWYQQKAGQSPKLLIYYASNRYTGVPDRFTGSGYGTDFTFAISSVQAEDLAVYFCQQDYSSPWTFGGGTKLEIK
notes: constant regions are not; also called hAPRIL.133 mAb; anti-hAPRIL.133 monoclonal antibody
Take B1: in experiment [1], the binding result was “binds”.

B2: hAPRIL.135 (antibody, IgG1, V domains shown)
VH: QVQLKESGPGLVAPSQSLSITCTVSGFSLSRYSVHWVRQPPGKGLEWLGMIWGGGSTDYNSALKSRLSISKDNSKRQVFLKMNSLQTDDTAIYYCARSNWEIYALDYWGQGTSVTVSS
VL: DIVLTQSPASLAVSLGQRATISCKASQSIDYDGDNYMNWYQQKPGQPPKLLIYVASSLESGIPARFSGSGSGTDFTLNIHPVEEEDAATYYCQQSNVEPYTFGGGTKLEIK
notes: constant regions are not; also called anti-hAPRIL antibody hAPRIL.135
On to B2, for which the binding result in experiment [1] was “binds”.

B3: hAPRIL.138 (antibody, IgG1, V domains shown)
VH: B2 VH with V34I, G42R, S70N, N83H, L105M
VL: B2 VL with A9P, N35R, S57N, N96H, V97E, Y100H
notes: constant regions are not; also called anti-hAPRIL antibody hAPRIL.138
Take B3: the binding result in experiment [2] was “binds”.

B4: hAPRIL.132 (antibody, IgG1, V domains shown)
VH: QEQLKESGPGLVAPSQSLSITCTVSGFSLTSYGVHWVRQPPGKGLEWLGVIWAGGSTNYNSALMSRLSISRDNSKSQVFLKMNSLQTDDTAMYYCAREGLDTSGFYYAMDYWGQGTSVTVSS
VL: DIQMTQTTSSLSASLGDRVTISCRAGQAISNYLNWYQQKPGGTVKLLIYYTSKLHSGVPSRFSGSGSGTDYSLTISNLEQEDIATYFCQQGYTLPYTFGGGTKLEIK
notes: constant regions are not; also called anti-hAPRIL antibody hAPRIL.132
B4: in experiment [1], the binding result is on record as “binds”.

Values taken from patent US20210325404A1 (ADURO BIOTECH HOLDINGS EUROPE B V, published 2021).
